Test [1] has as its target N-CBZ-Gly-Pro-Leu-Ala-Pro.
The target in test [2] is control peptide Ala-Leu-Lys-Asp-Ala-Gln-Thr-Asn-Ser-Ser-Ser-Phe.
Test [3] addresses Lys-Lys peptide Pro-Leu-Ser-Arg-Leu-Ser-Val-Ala-Lys-Lys.
The target in test [4] is MBP/IgG fusion protein encoded by pMA2-TH-IgG-9 (E. coli; human).

In the case of “carboxypeptidase Y (from UniProt P00729) (enzyme)”, the K^1 min^-1 (first order rate constant, flow digestion at 2 ml/min) stood at 1.48 min⁻¹ in the test with N-CBZ-Pro-Phe; 27.5 min⁻¹ in the test with N-CBZ-Ala-Leu; 24.2 min⁻¹ with N-CBZ-Glu-Tyr; 0.16 min⁻¹ with N-CBZ-Gly-Pro; 22.4 min⁻¹ in the test with N-CBZ-Ala-Pro. In test [1], the kinetic constant of hydrolysis of the remaining Pro-Leu bond, ninhydrin assays of released amino acids was determined as 18.4 min⁻¹. The substance further came in with a removal of the carboxy-terminal phenylalanine, HPLC of the digestion products in test [2] of 96%. Further, the rate of digestion at the flow rate of 4 ml/minute with N-CBZ-Phe-Ala was 42 µmol/min. The same substance returned a first order rate constant of hydrolysis of the Lys-Lys bond, ninhydrin assay of free lysine in test [3] of 0.16 min⁻¹.
In [4], thrombin (Sigma) (enzyme) showed a cleavage of the fusion protein, time course on SDS-PAGE (% cleaved after 5 minutes) of 75.

Values taken from patent US5935824.
